Data reported in patent publication US20230212543.

Experiments:
[1] = target: Asialylated etanercept (etanercept treated with sialidase)
[2] = target: Etanercept (native, fully glycosylated)
[3] = target: T1, TNFαR (the TNFα binding part of etanercept), P20333
T1 chain: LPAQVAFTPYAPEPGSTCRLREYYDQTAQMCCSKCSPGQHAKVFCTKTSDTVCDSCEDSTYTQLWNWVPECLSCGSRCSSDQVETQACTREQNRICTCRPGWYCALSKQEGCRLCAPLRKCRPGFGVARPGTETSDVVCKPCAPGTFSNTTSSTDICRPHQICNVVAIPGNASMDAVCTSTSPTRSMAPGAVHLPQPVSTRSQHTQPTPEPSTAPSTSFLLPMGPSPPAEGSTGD

B1: LS (O-glycoprotein-specific endoprotease encoded by the Amuc1119 gene of Akkermansia muciniphila, with N-terminal Met and C-terminal GSG-His6) (protein)
chain: MEVTVPDALKDRIALKKTARQLNIVYFLGSDTEPVPDYERRLSELLLYLQQFYGKEMQRHGYGARSFGLDIKSPGRVNIIEYKAKNPAAHYPYENGGGWKAAQELDEFFKAHPDRKKSQHTLIIMPTWNDEKNGPDNPGGVPFYGMGRNCFALDYPAFDIKHLGQKTREGRLLTKWYGGMAHELGHGLNLPHNHQTASDGKKYGTALMGSGNYTFGTSPTFLTPASCALLDACEVFSVTPSQQFYEGKPEVEVGDVAISFKGDQILVSGNYKSPQTVKALNVYIQDPPYAVNQDYDAVSFSRRLGKKSGKFSMKIDKKELEGLNNNEFRISLMFILANGLHMQKHFTFHWDALQDYRDGSKSGSGHHHHHH
- hydrolysis and release from double-mutant resin, SDS-PAGE (Asialylated Abatacept): could be hydrolyzed and eluted from the double-mutant-resin by LS in 6 h but had a slightly more complete elution after 24 h
- hydrolysis and release from double-mutant resin, SDS-PAGE [1]: could be hydrolyzed and eluted from the double-mutant-resin by LS in 6 h but had a slightly more complete elution after 24 h
- hydrolysis of substrate, SDS-PAGE [1]: LS was able to hydrolyze etanercept in the presence of sialidase
- hydrolysis of substrate, SDS-PAGE [2]: full hydrolysis after overnight incubation
- hydrolysis of substrate, SDS-PAGE [3]: LS had activity in all samples except those treated with O-glycosidase.
